The values that follow are results of earlier work, collected in patent US20250341526A1, “NOVEL DYES” (Quantum-Si Incorporated, priority 2024, published 2025).

Entries after “also recorded” stand apart in the source; their conditions may differ. Like-named read-outs stand apart in the source and are kept apart here.

In the data set the test system is amino acid at a terminal position of a polypeptide. The settings on record: inferred from literature and/or demonstrated by the inventors, cited from earlier work.
Setting [1] is: Table 2, amino acid at terminal position (phosphotyrosine also internal).
Setting [2] is: Table 1, ClpS proteins, amino acid at terminal position.

Regarding “Rattus norvegicus p62 protein: amino acid recognition protein, SEQ ID NO: 124”, the “Binding Pref.” value under setting [1] was “K, R, H,; also recorded: W, F, Y”.

Consider “H. sapiens p62 fragment 126-180: amino acid recognition protein, SEQ ID NO: 122”, for which the “Binding Pref.” value under setting [1] is “K, R, H,; also recorded: W, F, Y”.

With “H. sapiens p62 fragment 1-180: amino acid recognition protein, SEQ ID NO: 121”, under setting [1], the “Binding Pref.” value is reported as “K, R, H,; also recorded: W, F, Y”.

B1: PS406: ClpS amino acid recognition protein, SEQ ID NO: 29 (protein)
chain: MPDATTTPRTKTLTRTARPPLHKVILVNDDFTPREFVVRLLKAEFRTTGDEAQRIMITAHMKGSCVVAVFTREIAESKATRATETARAEGFPLLFTTEPEE
Turning to B1, the “Binding Pref.” value under setting [2] is recorded as “F, Y, W”.

B2: PS396: ClpS amino acid recognition protein, SEQ ID NO: 24 (protein)
chain: MSDNDVALKPKIKSKPKLERPKLYKVILVNDDFTPREFVIAVLKMVFRMSEETGYRVMLTAHRLGTSVVVVCARDIAETKAKEAVDFGKEAGFPLMFTTEPEE
Regarding B2, under setting [2], the “Binding Pref.” value was “F, W”.

B3: PS413: ClpS amino acid recognition protein, SEQ ID NO: 36 (protein)
chain: MMKQCGSYFLIKAVQDFKPLSKHRSDTDVITETKIQVKQPKLYTVIMYNDNYTTMDFVVYVLVEIFQHSIDKAYQLMMQIHESGQAAVALLPYDLAEMKVDEVTALAEQESYPLLTTIEPA
As for B3, under setting [2], the “Binding Pref.” value is “F, Y, W, L”.

B4: PS414: ClpS amino acid recognition protein, SEQ ID NO: 37 (protein)
chain: MQAAGNEPPDPQNPGDVGNGGDGGNQDGSNTGVVVKTRTRTRKPAMYKVLMLNDDYTPMEFVVHVLERFFQKNREEATRIMLHVHRRGVGVCGVYTYEVAETKVTQVMDLARQNQHPLQCTIEKE
As for B4, the “Binding Pref.” value under setting [2] is recorded as “F, Y, W, L”.

B5: PS369: ClpS amino acid recognition protein, SEQ ID NO: 2 (protein)
chain: MTSTLRARPARDTDLQHRPYPHYRIIVLDDDVNTFQHVVNCLVTFLPGMTRDQAWAMAQQVDGEGSAVVWTGPQEQAELYHVQLGNHGLTMAPLEPV
Regarding B5, under setting [2], the “Binding Pref.” value is “F, Y, W, L”.

B6: PS415: ClpS amino acid recognition protein, SEQ ID NO: 38 (protein)
chain: MALPETRTKIKPDVNIKEPPNYRVIYLNDDKTSMEFVIGSLMQHFSYPQQQAVEKTEEVHEHGSSTVAVLPYEMAEQKGIEVTLDARAEGFPLQVKIEPAER
For B6, the “Binding Pref.” value under setting [2] was “F, Y, W”.

B7: PS370: ClpS amino acid recognition protein, SEQ ID NO: 3 (protein)
chain: MFNSLGTVLDPKKSKAKYPEARVIVLDDNFNTFQHVANCLLAIIPRMCEQRAWDLTIKVDKAGSAEVWRGNLEQAELYHEQLFSKGLTMAPIEKT
On to B7, for which the “Binding Pref.” value under setting [2] was “F, L”.

B8: PS411: ClpS amino acid recognition protein, SEQ ID NO: 34 (protein)
chain: MTRPDAPEYDDDLAVEPAEPELARPPLYKVVLHNDDFTPMEFVVEVLQEFFNMDSEQAVQVMLAVHTQGKATCGIFTRDIAETKSYQVNEYARECEHPLMCDIEAAD
As for B8, under setting [2], the “Binding Pref.” value was “F, Y, W, L”.

B9: PS409: ClpS amino acid recognition protein, SEQ ID NO: 32 (protein)
chain: MPARLTDIEGEPNTDPVEDVLLADPELKKPQMYAVVMYNDDYTPMEFVVDVLQNHFKHTLDSAISIMLAIHQQGKGIAGIYPKDIAETKAQTVNRKARQAGYPLLSQIEPQG
Regarding B9, under setting [2], the “Binding Pref.” value is listed as “F, Y, W, L”.

B10: PS397: ClpS amino acid recognition protein, SEQ ID NO: 25 (protein)
chain: MSDNEVAPKRKTRVKPKLERPRLYKVILVNDDYTPRDFVVMVLKAIFRMSEEAGYRVMMTAHKLGTSVVVVCARDIAETKAKEATDLGKEAGFPLMFTTEPEE
As for B10, the “Binding Pref.” value under setting [2] is recorded as “F, Y, W”.

B11: PS410: ClpS amino acid recognition protein, SEQ ID NO: 33 (protein)
chain: MGDDDQSSREGEGDVAFQTADPELKRPSLYRVVLLNDDYTPMEFVVHILEQFFAMNREKATQVMLAVHTQGKGVCGVYTKDIAETKAALVNDYSRENQHPLLCEVEELDDESR
In the case of B11, under setting [2], the “Binding Pref.” value is given as “F, W, L”.

B12: PS405: ClpS amino acid recognition protein, SEQ ID NO: 28 (protein)
chain: MVSIGAATVACAEGRPIFSGYFDWLAAMPETVTVPRTRLRPKTERPKLHKVILVNDDYTPREFVVTVLKGEFHMSEDQAQRVMITAHRRGVCVVAVFTKDVAETKATRASDAGRAKGYPLQFTTEPEE
In the case of B12, the “Binding Pref.” value under setting [2] is reported as “F, Y, W”.

B13: PS408: ClpS amino acid recognition protein, SEQ ID NO: 31 (protein)
chain: MTDPPSKGREDVDLATRTKPKTQRPPLYKVLLLNDDFTPMEFVVHILERLFGMTHAQAIEIMLTVHRKGVAVVGVFSHEIAETKVAQVMELARRQQHPLQCTMEKE
As for B13, the “Binding Pref.” value under setting [2] is “F, Y, W, L”.

B14: PS412: ClpS amino acid recognition protein, SEQ ID NO: 35 (protein)
chain: MATKREGSTLLEPTAAKVKPPPLYKVLLLNDDYTPMEFVVLVLKKFFGIDQERATQIMLKVHTEGVGVCGVYPRDIAHTKVEQVVDFARQHQHPLQCTMEES
Take B14: under setting [2], the “Binding Pref.” value is on record as “F, Y, W, L”.

B15: PS407: ClpS amino acid recognition protein, SEQ ID NO: 30 (protein)
chain: MPSNKRQMCLSDIKNSFNESGIVDWHISPRLANEPSEEGDSDLAVQTVPPELKRPPLYAVVLLNDDYTPMEFVIEILQQYFAMNLDQATQVMLTVHYEGKGVAGVYPRDIAETKANQVNNYARSQGHPLLCQIEPKD
As for B15, the “Binding Pref.” value under setting [2] is “F, Y, W, L”.

B16: PS404: ClpS amino acid recognition protein, SEQ ID NO: 27 (protein)
chain: MPVSVTAPQTKTKTKPKVERPKLYKVILVNDDFTPREFVVRVLKAEFRMSEDQAAKVMMTAHQRGVCVVAVFTRDVAETKATRATDAGRAKGYPLLFTTEPEE
For the molecule B16, the “Binding Pref.” value under setting [2] is listed as “F, Y, W”.

B17: PS398: ClpS amino acid recognition protein, SEQ ID NO: 26 (protein)
chain: MPLKAQNRSIVGRRDEWPPPTTQSSSETKSESKRVSDTGADTKRKTKTVPKVEKPRLYKVILVNDDYTPREFVLVVLKAVFRMSEDQGYKVMITAHQKGSCVVAVYTRDIAETKAKEAVDLAKEIGFPLMFRTEPEE
For B17, the “Binding Pref.” value under setting [2] is listed as “F, W”.
